Patent publication US20260201038A1 (CELLABMED, published 2026)

What was measured:
[1] = target: B7-H3 on human cancer cells (human) (UniProt Q5ZPR3); experiment: flow cytometry on SK-BR-3 breast cancer cells; control (secondary antibody only) < 5%
[2] = target: T1, B7-DC (UniProt Q9BQ51 20-219, limits assumed); experiment: indirect ELISA, B7-DC coated at 1 ug/mL, absorbance at 450 nm
T1 sequence (looked up): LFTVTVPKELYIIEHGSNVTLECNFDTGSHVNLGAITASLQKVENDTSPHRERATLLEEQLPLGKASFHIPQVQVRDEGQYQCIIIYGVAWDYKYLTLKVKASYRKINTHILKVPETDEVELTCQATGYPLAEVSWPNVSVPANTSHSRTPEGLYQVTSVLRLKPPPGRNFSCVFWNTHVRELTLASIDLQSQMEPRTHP
Protocol: [The procedure below names another target; the source lists this target under the same test.] The binding ability of 2D IgG prepared in Example 2 for recombinant B7-H3 protein was investigated by indirect ELISA. For indirect ELISA, recombinant human 4lg B7-H3, recombinant human 2lg B7-H3 and recombinant mouse B7-H3 were diluted respectively to 1 μg/mL in 50 μL of PBS and adsorbed overnight onto a 96-well immunoplate (Corning, USA) by storing at 4° C. After reaction with a buffer solution containing 3% bovine serum albumin at room temperature for 1 hour, followed by washing 3 times with a buffer solution containing 0.5% Tween 20, each well was treated with 50 μL of the antibodies diluted serially (0.0001, 0.0003, 0.001, 0.003, 0.01, 0.03, 0.1, 0.3, 1, 3 and 10 nM). For antigen-antibody binding, the mixture was reacted at room temperature for 2 hours, and then washed 3 times with a buffer solution containing 0.5% Tween 20. After treating each well with 50 μL of anti-human immunoglobulin Fc-HRP antibodies (Jackson Immunoresearch, USA) diluted to 1:3,000, reaction was conducted at room temperature for 1 hour. […] As a result of measuring absorbance at 450 nm using a spectrophotometer (Biotek, USA), it was confirmed that 2D IgG binds to B7-H3, and the binding ability was in the order of 4lg B7-H3, 2lg B7-H3 and mouse B7-H3 (FIG. 2a). […]

[3] = target: T2, …; experiment: peptide microarray, 15-mers of human 4Ig B7-H3; panel Ig-like-V type 1
T2 sequence (peptide): EVQVPEDPVVALVGT

[4] = target: B7-H3 on human cancer cells (human) (UniProt Q5ZPR3); experiment: flow cytometry on NCI-H1975 lung cancer cells; control (secondary antibody only) < 5%
[5] = target: T3, QRSPTGAVEVQVPED; experiment: peptide microarray, 15-mers of human 4Ig B7-H3; panel Ig-like-V type 2
T3 construct: 15-mer of human 4Ig B7-H3 on the peptide microarray, panel Ig-like-V type 2
T3 peptide: QRSPTGAVEVQVPED
Protocol: (§1) It was confirmed that G2D IgG has linear epitopes since G2D was verified to recognize 4lg B7-H3 through western blot (FIG. 10a). Therefore, linear epitope mapping was conducted by Pepperprint GmbH (Germany). After preparing a peptide microarray from the 15 4lg B7-H3 amino acids with 14-amino acid overlaps, the antibodies binding to peptides were identified using secondary antibodies (FIG. 10b). As a result, it was confirmed that G2D IgG binds to a peptide having a sequence of EVQVP (FIG. 10c). EVQVP is located in the Ig-like V-type1 and Ig-like V-type2 domains of 4lg B7-H3 (FIGS. 10d and 10e). When the epitopes of the control antibody enoblituzumab were identified by the same method, it was confirmed that the epitopes include the sequence of GYPEAE (FIG. 10b), and GYPEAE is located in the Ig-like C2-type1 and Ig-like C2-type2 domains of 4lg B7-H3 (FIGS. 10d and 10e). As a result, it was confirmed that G2D IgG and the control antibody enoblituzumab have different epitopes.

[6] = target: T4, SPTGAVEVQVPEDPV; experiment: as above
T4 construct: 15-mer of human 4Ig B7-H3 on the peptide microarray, panel Ig-like-V type 2
T4 peptide: SPTGAVEVQVPEDPV
Protocol: as §1

[7] = target: T5, PQRSPTGAVEVQVPE; experiment: as above
T5 construct: 15-mer of human 4Ig B7-H3 on the peptide microarray, panel Ig-like-V type 2
T5 peptide: PQRSPTGAVEVQVPE
Protocol: as §1

[8] = target: T6, VEVQVPEDPVVALVG; experiment: as above
T6 construct: 15-mer of human 4Ig B7-H3 on the peptide microarray, panel Ig-like-V type 2
T6 peptide: VEVQVPEDPVVALVG
Protocol: as §1

[9] = target: T7, TPQRSPTGAVEVQVP; experiment: as above
T7 construct: 15-mer of human 4Ig B7-H3 on the peptide microarray, panel Ig-like-V type 2
T7 peptide: TPQRSPTGAVEVQVP
Protocol: as §1

[10] = target: T8, RSPTGAVEVQVPEDP; experiment: as above
T8 construct: 15-mer of human 4Ig B7-H3 on the peptide microarray, panel Ig-like-V type 2
T8 peptide: RSPTGAVEVQVPEDP
Protocol: as §1

[11] = target: T9, PTGAVEVQVPEDPVV; experiment: as above
T9 construct: 15-mer of human 4Ig B7-H3 on the peptide microarray, panel Ig-like-V type 2
T9 peptide: PTGAVEVQVPEDPVV
Protocol: as §1

[12] = target: T10, TGAVEVQVPEDPVVA; experiment: as above
T10 construct: 15-mer of human 4Ig B7-H3 on the peptide microarray, panel Ig-like-V type 2
T10 peptide: TGAVEVQVPEDPVVA
Protocol: as §1

[13] = target: T11, GAVEVQVPEDPVVAL; experiment: as above
T11 construct: 15-mer of human 4Ig B7-H3 on the peptide microarray, panel Ig-like-V type 2
T11 peptide: GAVEVQVPEDPVVAL
Protocol: as §1

[14] = target: B7-H3 on human cancer cells (human) (UniProt Q5ZPR3); experiment: flow cytometry on A549 lung cancer cells; control (secondary antibody only) < 5%
[15] = target: human 2Ig B7-H3 expressed on Raji cells (human) (UniProt Q5ZPR3); experiment: flow cytometry on Raji cells expressing 2Ig B7-H3; the vector control Raji cells show < 2%
human 2Ig B7-H3 expressed on Raji cells (human), sequence (Q5ZPR3 other isoform, or with tags, fused parts or gaps, form in doubt): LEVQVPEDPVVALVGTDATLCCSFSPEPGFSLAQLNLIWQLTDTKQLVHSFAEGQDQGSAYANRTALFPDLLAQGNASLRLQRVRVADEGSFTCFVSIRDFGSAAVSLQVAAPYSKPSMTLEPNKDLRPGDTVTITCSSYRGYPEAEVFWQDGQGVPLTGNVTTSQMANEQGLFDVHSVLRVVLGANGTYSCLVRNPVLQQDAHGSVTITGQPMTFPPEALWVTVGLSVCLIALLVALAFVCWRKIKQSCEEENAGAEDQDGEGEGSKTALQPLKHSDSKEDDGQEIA

- % of cells in the positive gate [1]: > 35%
- binding result [2]: no binding (tested: 10 nM)
- fluorescence intensity of the peptide spot [3]: 16
- % of cells in the positive gate [4]: > 80%
- fluorescence intensity of the peptide spot [5]: 80
- fluorescence intensity of the peptide spot [6]: 94.8
- fluorescence intensity of the peptide spot [7]: 92.3
- fluorescence intensity of the peptide spot [8]: 92.5
- fluorescence intensity of the peptide spot [9]: 89.3
- fluorescence intensity of the peptide spot [10]: 120
- fluorescence intensity of the peptide spot [11]: 142
- fluorescence intensity of the peptide spot [12]: 84.5
- fluorescence intensity of the peptide spot [13]: 95
- % of cells in the positive gate [14]: > 95%
- % of cells in the positive gate (P3) [15]: > 40%
B1: G2D IgG (antibody, V domains shown)
VH: QVQLVESGGGLVQPGGSLRLSCSASGFDFSSYPMVWVRQAPGKGLEYVSSINSGGSWTGYGAAVKGRATISRDNSKNTLYLQMNSLRAEDTATYYCARAYGAATIDAWGQGTTVTVSS
VL: SYELTQPPSVSVSPGQTARITCSGGSIGYGWYQQKAPGQAPVTVIYYNDRRPSGIPERFSGSKSGTTNTLTISGVQAEDEADYYCGSADSSSTYTGIFGGGTKLTVL
notes: The back-substitutions (L46T, S66K, V71N in VL); also called humanized 2D; G2D antibody
